# In patent US20090142784:
# What was measured:
# [1] = tested on: T1, LRRKtide peptide (RLGRDKYKTLRQIRQ)
# T1 sequence: RLGRDKYKTLRQIRQ
# [2] = tested on: T2, LongLRRKtide (RLGRDKYKTLRQIRQGNTKQR)
# T2 sequence: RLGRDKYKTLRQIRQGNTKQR
substance,measurement,setting,value
GST-LRRK2[1326-2527],"Km (phosphorylation of LRRKtide, P81 paper 32P assay)",[1],a similar Km of approximately 200 µM
same,affinity relative to LRRKtide (from phosphorylation with LRRK2),[2],The LRRK2 affinity for the longLRRKtide is ten fold more than that that of LRRKtide
